Laboratory results published in US20250295734A1, “ANTICOAGULANT PROTEINS AND THEIR USE FOR TREATING DISEASES ASSOCIATED WITH THE ACTIVATION OF NEUTROPHILS” (BIOXODES, priority 2018, published 2025).
Entries after “also recorded” stand apart in the source; their conditions may differ.

Key:
[1] = biological target: T1, FXII zymogen (Homo sapiens, UniProt P00748); details: cited from earlier work
T1 sequence (P00748 20-615): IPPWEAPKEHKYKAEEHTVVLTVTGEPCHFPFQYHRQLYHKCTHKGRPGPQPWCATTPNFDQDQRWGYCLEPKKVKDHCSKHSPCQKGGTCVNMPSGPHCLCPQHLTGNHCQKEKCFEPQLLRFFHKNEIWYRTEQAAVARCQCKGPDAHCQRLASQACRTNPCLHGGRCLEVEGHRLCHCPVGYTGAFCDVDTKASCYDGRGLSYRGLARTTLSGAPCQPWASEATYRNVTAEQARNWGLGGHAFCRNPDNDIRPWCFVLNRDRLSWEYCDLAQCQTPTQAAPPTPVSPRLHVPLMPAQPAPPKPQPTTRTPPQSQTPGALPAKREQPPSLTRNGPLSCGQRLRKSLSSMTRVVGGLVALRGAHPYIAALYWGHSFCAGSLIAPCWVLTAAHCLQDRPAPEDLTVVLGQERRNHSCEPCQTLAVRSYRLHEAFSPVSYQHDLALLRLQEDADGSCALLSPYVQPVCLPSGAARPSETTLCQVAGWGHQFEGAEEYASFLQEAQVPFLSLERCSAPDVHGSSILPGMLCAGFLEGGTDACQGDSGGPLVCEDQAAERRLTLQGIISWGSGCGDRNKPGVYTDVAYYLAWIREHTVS

[2] = system: human neutrophils; test: Apoptosis/necrosis assay (Annexin V / Propidium Iodide); assay type: cell-based; details: recombinant Ir-CPI 15.3 μg/mL (2 μM); 1 h incubation; 4 donors
Method: The effect of recombinant Ir-CPI on apoptosis/necrosis of human neutrophils was assessed. For this purpose, freshly isolated neutrophils from 4 donors were pre-treated for 1 h with recombinant Ir-CPI at 15.3 μg/mL and then incubated with Annexin V-FITC, with Propidium Iodide (PI) and with anti-human CD66b-PE antibody for cell identification. As negative control, neutrophils were only incubated with Annexin V-PI and CD66b for cell identification.
Polymorphonuclear neutrophils (PMNs) were isolated with StraightFrom® Whole Blood CD15 MicroBeads kits from Miltenyi Biotech. Briefly, after erythrocytes lysis, the blood cells were incubated in the presence of CD15 microbeads. Blood cells were washed with separation buffer and centrifuged at 300 g for 10 min at room temperature. The pellets containing magnetically labeled cells were resuspended in separation buffer and applied to the equilibrated whole blood column placed on the QuadroMACS. After extensive washing, the column was removed from the magnetic separator, and labeled cells were eluted using whole blood elution buffer. Finally, the PMNs were centrifuged at 300 g for 10 min and resuspended in Hank's buffer with calcium and magnesium. […]
Apoptosis was detected by initially staining the cells with Annexin V and Propidium Iodide solution followed by flow cytometry analysis. […]

[3] = system: platelet accumulation and fibrin generation on the injured vessel walls; test: Laser-induced vessel wall injury of cremaster muscle arterioles: platelet and fibrin detection; assay type: in vivo, mice (C57BL/6JRj); details: iv bolus 20.5 mg/kg + infusion 3.7 mg/kg/h
Method: Ir-CPI was administered intravenously as a bolus (20.5 mg/kg) immediately followed by a continuous infusion at a rate of 3.7 mg/kg/h (see Table 1 below). Due to fast distribution and elimination of Ir-CPI in the mice (t1/2α=14 min and t1/2β=236 min), the combination of the bolus and the infusion was chosen in order to maintain a constant Ir-CPI concentration into the blood.
Intravital video-microscopy of the cremaster muscle microcirculation was done as previously described (Falati et al., 2002).
Mice were anesthetized with intraperitoneal injection of ketamine (125 mg/kg), xylazine (12.5 mg/kg) and atropine (0.25 mg/kg) and were maintained at 37° C. on a thermo-controlled rodent blanket.
A tracheal tube was inserted into the trachea to facilitate breathing. A canula was inserted into a jugular vein for administration of pentobarbital. Pentobarbital (12 mg/kg) was administered in the jugular vein every 20-30 minutes to maintain the mice under anesthesia throughout the handling. The same jugular vein canula was used for the administration of the antibodies and the enzymatic substrate coupled to a fluorochrome that is necessary to follow the development of the thrombus (detection of fibrin and/or platelets and/or neutrophils and/or neutrophil elastase activity). A canula was also inserted in the second contralateral jugular vein for administration of the vehicle or the test item (Ir-CPI or NaCl).
After the scrotum was incised, the testicle and surrounding cremaster muscle were exteriorized onto an intravital microscopy tray. The cremaster muscle was continuously perfused with thermo-controlled (37° C.) and aerated (95% N2, 5% CO2) bicarbonate-buffered saline solution throughout the experiment.
Microvessel data were obtained using an Olympus AX61WI microscope with a 60×0.9-numerical aperture water immersion objective. The digital wide-field fluorescence microscopy system has previously been described (Falati et al., 2002). Digital images were captured with a Cooke Sensicam CCD camera in 640×480 format.
Vessel wall injury was induced with a Micropoint Laser System (Photonics Instruments) focused through the microscope objective, parfocal with the focal plane and aimed at the vessel wall, as previously described (Dubois et al., 2006). Typically, 1 or 2 pulses were required to induce vessel wall injury.
Multiple thrombi were studied in a single mouse, with new thrombi formed upstream of earlier thrombi to avoid any contribution from thrombi generated earlier in the animal under study. Laser-beam injuries were done at various time after the start of test-item administration (+5 min up to about 150 min after bolus administration of Ir-CPI or NaCl (control)).
Image analysis was performed using Slidebook 4.1 (Intelligent Imaging Innovations). Fluorescence data were captured digitally at up to 50 frames per second and analyzed as previously described (Falati et al., 2002). The kinetics of thrombus formation were analyzed by determining median fluorescence values over time in a minimum number of 20 thrombi.
In vivo detection of fibrin was performed using an Alexa Fluor 488-conjugated anti-fibrin antibody from Darbousset et al., 2014, administered intravenously at 0.5 μg/g of mouse. […]
Platelet accumulation and fibrin generation on the injured vessel walls were monitored using the following fluorescently labeled antibodies: DyLight649-labeled anti-GPIb antibody and Alexa Fluor 488-conjugated anti-fibrin antibody, respectively.

B1: Ir-CPI: Ixodes ricinus salivary gland polypeptide, contact phase inhibitor, MW=7660 Da; sequence SEQ ID NO: 1 or SEQ ID NO: 2 (protein)
chain: ANHKGRGRPAKCKLPPDDGPCRARIPSYYFDRKTKTCKEFMYGGCEGNENNFENITTCQEECRAKKV
In the case of B1, the “binding to FXII zymogen” value [1] is listed as “but not to their zymogen forms; also recorded: unable to bind directly”, the induction of apoptosis [2] is listed as “did not induce apoptosis” and the “mean necrotic, dead, apoptotic, and live cells vs negative control” value [2] is listed as “no statistical difference”. The “maximal median of integrated platelet fluorescence” value ([3]; at T214 sec after laser injury) was 121 783 AU, the “median of integrated platelet fluorescence” value ([3]; at T228 sec (end of measurement)) was 101 887 AU and the “median of integrated fibrin fluorescence intensity compared to control mice” value ([3]; every time point 0, 15, 30, 45, 75 and 90 min) was “lower”. For the same molecule, the “fibrin generation compared to control mice” value ([3]; first 3.8 min after laser injury) was “less important” and the “platelet accumulation compared to control mice” value ([3]; short time period (228 sec)) was “drastically decreased”.
